Source: patent US10434074B2, “Peptide and small molecule agonists of EPHA and uses thereof” (CASE WESTERN RESERVE UNIVERSITY, priority 2004, dated 2019)
“Also recorded” adds a separate entry of the source.

Legend:
[1] = tested on: E-cadherin; assay: E-cadherin immunoblot and immunofluorescence; type: cell-based, human
Description: FIGS. 5(A-E) illustrate (A) Ephrin-A1 co-stimulation inhibited the loss of E-cadherin induced by HGF/SF. DU-145 cells were treated as indicated for 24 or 48 hours. Cell lysates were subject to anti-E-cadherin immunoblot. Same membrane was stripped and blotted with anti-ERK1 as loading control. Relative intensity of E-cadherin=intensities of E-cadherin band/intensity of ERK band. (B) Immunofluorescent staining of E-cadherin after 24 hours of the indicated treatment. Note almost exclusive cytoplasmic staining pattern in HGF/SF treated cells, while cotreatment with ephrin-A1 restored significant levels of E-cadherin at cell-cell junction. (C) Ephrin-A1-Fc pre-treatment preserved E-cadherin expression in HGF/SF treated cells. DU-145 cells were pre-treated with Fc or ephrin-A1-Fc for 24 hours. HGF/SF was then added. The cells were cultured for another 24 hours and lysed for anti-E-cadherin immunoblot. Anti-ERK1 was used as loading control. (D) Cells grown on cover slips received same treatment as in C were subject to anti-E-cadherin immunofluorescence analysis. Note the significant preservation of E-cadherin localization at cell-cell adhesion site by ephrin-A1-Fc compared with Fc control. (E) Numbers of total cells and cells without contact with other cells were counted in 6-8 randomly chosen fields. * Fc/HGF/SF vs. ephrin-A1-Fc/HGF/SF: p=4.6×10^−7.
Cells were cultured on cover slips in 24-well dishes for 24 hours, fixed in 4% formaldehyde for 20 minutes and permeabilized with 0.5% NP-40 for 10 minutes. Blocking was performed using blocking solution containing 2% BSA and 2% goat serum in PBS. Subsequently, cells were incubated with 1 μg/ml anti-EphA2 or anti-E-cadherin antibody. A Texas Red-conjugated goat anti-rabbit IgG or FITC-conjugated rabbit anti-mouse IgG was used to visualize the primary antibodies. Vector-Shield mounting solution containing DAPI (Vector Laboratories) was used to mount the cover slips onto slides.
Cells cultured in 6 well plates at 70-80% confluence were stimulated with 0.5 μg/ml Fc, 1 μg/ml epnrinA1-Fc or 20 ng/ml HGF/SF or their combinations as indicated. After stimulation, cells were lysed in RIPA buffer (20 mM Tris, pH7.4, 125 mM NaCl, 20 mM NaF, 0.1% SDS, 10% glycerol, 0.5% sodium deoxycholate, and 1% TX-100, 0.5 mM Na3VO4) containing protease inhibitors (1 mM phenylmethylsulphonyl fluoride, and 2 μg/ml each of aprotinin and leupeptin). Cell lysates were clarified by centrifugation at 13,000 rpm for 5 min. Immunoprecipitation was carried out by adding anti-EphA2 antibody to clarified cell lysates and incubated for 1 hour at 4° C. The immunocomplex was captured using γ-bind beads (Pharmacia). Cell lysates or precipitated proteins were separated on 4-20% Tris-glycine gels (Invitrogen) and transferred to Immobilon-P PVDF membranes (Millipore). […] For quantitative analysis, band densities were measured using KODAK 1D imagine analysis software (Eastman Kodak Company).

[2] = tested on: EphA2; assay: EphA activation and ERK1/2 in primary keratinocytes; type: cell-based, mouse
Description: (§1) FIGS. 43(A-C) illustrate EphA2 kinase is required for ephrin-A1-induced inhibition of ERK1/2 MAP kinase and growth suppression in primary keratinocytes. A) EphA kinase activation by ephrin-A1 in EphA2^+/+ and EphA2^+/− but not EphA2^−/− keratinocytes. Keratinocytes were isolated from newborn (P1) mice and cultured on matrigel-coated culture plates. They were stimulated with 1.0 μg/ml of ephrin-A1-Fc for 10 min. The unstimulated cells were used as control. EphA receptors including EphA2 were precipitated from the cell lysates using ephrin-A1-Fc, and were subjected to immunoblot analysis with rabbit polyclonal anti-phospho-EphA/B antibody. Membrane was stripped and blotted again for total EphA2. B) Ephrin-A1 stimulation leads to inactivation of ERK1/2 MAPK in EphA2^+/+ and EphA2^+/− but not EphA2^−/− keratinocytes. Total cell lysates were analyzed by immunoblot with the indicated antibodies. The band densities from p-ERK blot were normalized to the corresponding total ERK1 blot. The ratios of p-ERK between ephrin-A1-treated and untreated were shown in the lower panel. C). Ephrin-A1 stimulation inhibits clonal growth of EphA2^+/+ and EphA2^+/− but not EphA2^−/− keratinocytes. Primary keratinocytes were plated on 6-well plates coated with matrigel at 5,000 cells/well, and allowed to grow for 12 days in the presence of Fc (0.5 μg/ml) or ephrin-A1-Fc (1.0 μg/ml).
(§2) To determine cellular mechanisms underlying the increased susceptibility to skin tumorigenesis, primary keratinocytes were isolated and cultured from epidermis of neonatal (P1) mice. They were stimulated with ephrin-A1 fused to the heavy chain of human IgG1 (ephrin-A1-Fc). EphA kinases including EphA2 were precipitated with excess ephrin-A1-Fc, and blotted with antibody raised against phosphorylated dityrosine peptide that is highly conserved in the juxtamembrane region of all Eph kinases. Phosphorylation of this region has been correlated with Eph receptor activation.
(§3) Primary keratinocytes were isolated from neonatal mouse skin as described previously (Caldelari et al., 2000). Briefly, the entire P1 mouse skin was dissected and incubated with 5 U/ml dispase II (Boehringer Mannheim) overnight at 4° C. Epidermal layer was separated from dermal layer using forceps, minced and digested with 0.25% trypsin/0.05 mMEDTA. After neutralizing trypsin by washing with serum-containing medium, cells were filtered through sterile gauze pads, spun down and resuspended in serum-free keratinocytes culture medium (Gibco) containing pituitary extract, 5 ng/ml EGF, 100 U/ml penicillin, 0.1 mg/ml streptomycin, and 0.25 μg/ml amphotericin, and plated on 6-well plates precoated with 50 μg/ml matrigel. Cell stimulation with ephrin-A1-Fc, immunoprecipitation, and immunoblot were carried as described preciously (Miao et al., 2003; Miao et al., 2005).

[3] = target: T1, EphA2 (Mus musculus, UniProt Q03145); assay: as above; type: cell-based
T1 construct: endogenous in cells; host or cells: primary keratinocytes from newborn (P1) mouse epidermis
T1 sequence (Q03145 26-977): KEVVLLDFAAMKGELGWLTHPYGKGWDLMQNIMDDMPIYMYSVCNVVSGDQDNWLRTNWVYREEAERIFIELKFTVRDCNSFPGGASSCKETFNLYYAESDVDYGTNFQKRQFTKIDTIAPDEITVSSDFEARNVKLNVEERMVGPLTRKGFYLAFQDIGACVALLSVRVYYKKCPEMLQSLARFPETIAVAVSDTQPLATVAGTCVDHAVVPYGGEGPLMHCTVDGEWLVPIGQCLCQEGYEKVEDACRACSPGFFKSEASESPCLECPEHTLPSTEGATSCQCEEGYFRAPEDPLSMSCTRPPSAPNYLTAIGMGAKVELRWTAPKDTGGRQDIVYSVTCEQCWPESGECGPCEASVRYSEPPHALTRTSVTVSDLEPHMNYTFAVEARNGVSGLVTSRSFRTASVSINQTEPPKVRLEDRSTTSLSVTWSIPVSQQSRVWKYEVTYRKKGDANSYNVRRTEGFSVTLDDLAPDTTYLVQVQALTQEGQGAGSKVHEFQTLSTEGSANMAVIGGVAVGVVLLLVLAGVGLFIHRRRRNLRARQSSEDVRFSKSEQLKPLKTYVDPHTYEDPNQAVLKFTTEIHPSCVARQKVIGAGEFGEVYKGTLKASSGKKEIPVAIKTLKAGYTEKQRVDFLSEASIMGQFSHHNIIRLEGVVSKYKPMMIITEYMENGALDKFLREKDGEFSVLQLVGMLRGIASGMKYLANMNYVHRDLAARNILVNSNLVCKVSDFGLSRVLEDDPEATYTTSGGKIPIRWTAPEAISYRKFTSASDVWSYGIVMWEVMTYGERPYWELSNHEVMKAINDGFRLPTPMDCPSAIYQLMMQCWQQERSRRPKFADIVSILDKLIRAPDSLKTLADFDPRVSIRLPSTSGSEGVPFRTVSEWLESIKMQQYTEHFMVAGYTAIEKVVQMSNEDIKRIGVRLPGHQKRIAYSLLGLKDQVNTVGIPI
Description: as §1, §2, §3

B1: ephrin-A1-Fc: ephrin-A1 dimerized by fusion to the heavy chain of human IgG1 (protein)
chain: DRHTVFWNSSNPKFRNEDYTIHVQLNDYVDIICPHYEDHSVADAAMEQYILYLVEHEEYQLCQPQSKDQVRWQCNRPSAKHGPEKLSEKFQRFTPFTLGKEFKEGHSYYYISKPIHQHEDRCLRLKVTVSGKITHSPQAHDNPQEKRLAADDPEVRVLHSIGHS
modifications: left off: a dimerising Fc or GST
notes: ephrin-A1 dimerized by fusion to the heavy chain of human IgG1
For B1, the “total E-cadherin, 24 hours pretreatment before HGF/SF” value ([1]; immunoblot) was “significantly prevented HGF/SF-induced down-regulation of total cellular E-cadherin”, the “total E-cadherin on co-treatment with HGF/SF” value ([1]; immunoblot, 24 or 48 hours) was “significantly preserved” and the “E-cadherin at cell-cell junction, 24 hours pretreatment before HGF/SF” value ([1]; immunofluorescence) was “significant fraction of E-cadherin was retained at cell-cell junction”. The “E-cadherin at cell-cell junctions on co-treatment with HGF/SF” value ([1]; immunofluorescence) was “dramatically retained”, the E-cadherin expression ([1]; ligand alone vs Fc, immunoblot) was “moderately increased E-cadherin expression; also recorded: increased E-cadherin expression at 48 hours” and the p-EphA/B signal ([2]; EphA2-null keratinocytes) was “undetectable”. For the same molecule, the ERK1/2 activities ([2]; EphA2 homozygous deletion) was “completely abolished the inhibitory effects”, the ERK1/2 activities ([3]; heterozygous keratinocytes) was “intermediate response” and the EphA2 activation ([3]; wild type and heterozygous keratinocytes) was “readily activated”. For the same molecule, the ERK1/2 activities ([3]; wild type keratinocytes) was “significantly attenuated”.
